Substitutions are numbered along the chain they refer to. Blank lines part the entries; values can stand above or below the binder they belong to.
Key:
[1] = molecular target: T1, human FcγRIIa type R (allotype R131) extracellular domain with C-terminal His tag (human, UniProt P12318 34-217); assay: SPR (Biacore), antibody captured, FcγR analyte
T1 construct: extracellular domain; also called FcγRIIaR; not shown: His tag at the C terminus
T1 sequence (looked up): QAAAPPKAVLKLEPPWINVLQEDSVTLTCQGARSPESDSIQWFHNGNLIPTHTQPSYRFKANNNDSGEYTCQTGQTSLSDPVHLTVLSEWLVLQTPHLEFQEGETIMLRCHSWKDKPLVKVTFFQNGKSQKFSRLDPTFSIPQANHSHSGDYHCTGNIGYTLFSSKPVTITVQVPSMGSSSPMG

[2] = molecular target: T2, human FcγRIIa type H (allotype H131) extracellular domain with C-terminal His tag (human, UniProt P12318 34-217); assay: SPR (Biacore), captured antibody, FcγR analyte
T2 construct: also called FcγRIIaH
T2 sequence: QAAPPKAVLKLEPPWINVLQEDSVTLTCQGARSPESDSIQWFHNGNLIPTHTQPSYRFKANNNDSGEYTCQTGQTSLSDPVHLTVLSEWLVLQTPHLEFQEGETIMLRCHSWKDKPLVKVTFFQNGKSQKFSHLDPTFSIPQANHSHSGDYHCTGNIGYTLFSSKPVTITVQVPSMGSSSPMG

[3] = molecular target: T3, human FcγRIIa type H (allotype H131) extracellular domain with C-terminal His tag (human, UniProt P12318 34-217); assay: SPR (Biacore), antibody captured, FcγR analyte
T3 construct: extracellular domain; also called FcγRIIaH; not shown: His tag at the C terminus
T3 sequence (looked up): T1 sequence (looked up) with R134H

[4] = molecular target: T4, human FcγRIa extracellular domain with C-terminal His tag (human, UniProt P12314 16-292); assay: SPR (Biacore), antibody captured, FcγR analyte
T4 construct: not shown: His tag at the C terminus

[5] = molecular target: T5, FcγRIIb extracellular domain with C-terminal His tag (human, UniProt P31994 43-217); assay: SPR; KD for FcγRIIaH divided by KD for FcγRIIb
T5 construct: extracellular domain
T5 sequence (looked up): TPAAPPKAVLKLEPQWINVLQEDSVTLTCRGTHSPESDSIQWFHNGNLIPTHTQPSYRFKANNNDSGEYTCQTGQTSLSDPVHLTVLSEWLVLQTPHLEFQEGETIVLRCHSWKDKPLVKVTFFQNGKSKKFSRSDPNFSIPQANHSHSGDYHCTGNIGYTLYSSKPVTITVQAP

[6] = molecular target: T5, FcγRIIb extracellular domain with …; assay: SPR; KD for FcγRIIaR divided by KD for FcγRIIb
[7] = molecular target: T6, FcγRIIa type H (allotype H131) extracellular domain with C-terminal His tag (human, UniProt P12318 34-217); assay: SPR (Biacore), antibody captured, FcγR as analyte
T6 construct: extracellular domain; also called FcγRIIaH; FcγRIIa H type
T6 sequence (looked up): T1 sequence (looked up) with R134H

[8] = molecular target: T7, FcγRIIa type R (allotype R131) extracellular domain with C-terminal His tag (human, UniProt P12318 34-217); assay: SPR; KD of IL6R-B3/IL6R-L divided by KD of the variant
T7 construct: extracellular domain; also called FcγRIIaR; FcγRIIa R type
T7 sequence (looked up): T1 sequence (looked up)

[9] = molecular target: T5, FcγRIIb extracellular domain with …; assay: as above
[10] = molecular target: T3, human FcγRIIa type H (allotype H131) …; assay: SPR (Biacore), antibody captured, FcγR analyte; remark: listed apart in the source
mouse FcγRI = molecular target: T8, mouse FcγRI (mouse, UniProt P26151 25-297); assay: SPR (Biacore), method of Reference Example 2
T8 construct: extracellular domain; also called mFcγRI
T8 sequence (looked up): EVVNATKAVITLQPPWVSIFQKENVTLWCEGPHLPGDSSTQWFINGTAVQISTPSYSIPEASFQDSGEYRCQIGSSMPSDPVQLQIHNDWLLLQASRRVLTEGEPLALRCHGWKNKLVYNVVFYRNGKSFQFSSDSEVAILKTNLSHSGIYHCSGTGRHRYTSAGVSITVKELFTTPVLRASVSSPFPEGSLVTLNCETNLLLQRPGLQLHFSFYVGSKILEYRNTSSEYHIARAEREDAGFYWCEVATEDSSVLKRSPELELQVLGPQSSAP

mouse FcγRIV = molecular target: T9, mouse FcγRIV (mouse, UniProt A0A0B4J1G0 21-203); assay: SPR (Biacore), method of Reference Example 2
T9 construct: also called mFcγRIV; not shown: purification tag of the soluble receptor (probably a His tag)
T9 sequence: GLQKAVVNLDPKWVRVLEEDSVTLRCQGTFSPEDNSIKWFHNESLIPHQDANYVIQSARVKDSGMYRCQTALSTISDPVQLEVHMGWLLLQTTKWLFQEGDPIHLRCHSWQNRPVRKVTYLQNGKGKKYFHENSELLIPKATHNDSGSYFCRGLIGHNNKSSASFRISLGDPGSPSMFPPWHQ

T4 sequence (P12314 16-292): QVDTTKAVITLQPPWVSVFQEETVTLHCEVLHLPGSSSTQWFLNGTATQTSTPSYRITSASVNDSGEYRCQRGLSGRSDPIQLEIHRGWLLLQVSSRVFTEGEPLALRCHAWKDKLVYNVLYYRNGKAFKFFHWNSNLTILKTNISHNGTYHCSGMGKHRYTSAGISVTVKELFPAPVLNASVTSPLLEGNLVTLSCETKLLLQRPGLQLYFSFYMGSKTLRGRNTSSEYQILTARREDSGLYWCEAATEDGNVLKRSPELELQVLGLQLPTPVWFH

B1: IL6R-BP183/IL6R-L (antibody, human IgG1, kappa, name in EU numbering)
heavy: QVQLQESGPGLVKPSETLSLTCAVSGHSISHDHAWSWVRQPPGEGLEWIGFISYSGITNYNPSLQGRVTISRDNSKNTLYLQMNSLRAEDTAVYYCARSLARTTAMDYWGEGTLVTVSSASTKGPSVFPLAPSSKSTSGGTAALGCLVKDYFPEPVTVSWNSGALTSGVHTFPAVLQSSGLYSLSSVVTVPSSSLGTQTYICNVNHKPSNTKVDKKVEPKSCDKTHTCPPCPAPDYLGGDSVFLFPPKPKDTLMISRTPEVTCVVVDVSHEDGEVKFNWYVDGVEVHNAKTKPREEQYNSTYRVVSVLTVLHQDWLNGKEYKCKVSNAALPKPIEKTISKAKGQPREPQVYTLPPSRDELTKNQVSLTCLVKGFYPSDIAVEWESNGQPENNYKTTPPVLDSDGSFFLYSKLTVDKSRWQQGNVFSCSVMHEALHNHYTQESLSLSP
light: not shown
notes: EU numbering; copies: 2 + 2
- Kd [1]: 1600 nM

B5: IL6R-BP234/IL6R-L (antibody, human IgG1, kappa, name in EU numbering)
heavy: B1 heavy with G239D, S269Q, H270D, Y298D, A328D
light: not shown
notes: EU numbering; copies: 2 + 2
- Kd [3]: 20 µM

B6: IL6R-BP193/IL6R-L (antibody, human IgG1, kappa, name in EU numbering)
heavy: B1 heavy with Y236L, H270D, A328K
light: not shown
notes: EU numbering; copies: 2 + 2
- Kd [4]: 5.3 nM

B7: IL6R-BP190/IL6R-L (antibody, human IgG1, kappa, name in EU numbering)
heavy: B1 heavy with D235E, Y236L, G239D, H270D, A328K
light: not shown
notes: EU numbering; copies: 2 + 2
- Kd [4]: 53 nM

B8: IL6R-BP199/IL6R-L (antibody, human IgG1, kappa, name in EU numbering)
heavy: B1 heavy with Y236L, G273P, A328D, K332R
light: not shown
notes: EU numbering; copies: 2 + 2
- Kd [4]: 5.4 nM

B10: IL6R-BP206/IL6R-L (antibody, human IgG1, kappa, name in EU numbering)
heavy: B1 heavy with Y236L, A328K, K332R
light: not shown
notes: EU numbering; copies: 2 + 2
- Kd [1]: 5100 nM

B12: IL6R-BP185/IL6R-L (antibody, human IgG1, kappa, name in EU numbering)
heavy: B1 heavy with G239D
light: not shown
notes: EU numbering; copies: 2 + 2
- Kd [4]: 53 nM

B14: IL6R-BP184/IL6R-L (antibody, human IgG1, kappa, name in EU numbering)
heavy: B1 heavy with Y236L, A328K
light: not shown
notes: EU numbering; copies: 2 + 2
- Kd [1]: 1300 nM

B15: IL6R-BP192/IL6R-L (antibody, human IgG1, kappa, name in EU numbering)
heavy: B1 heavy with Y236L, H270D, Y298D, A328K
light: not shown
notes: EU numbering; copies: 2 + 2
- Kd [4]: 5.6 nM

B16: IL6R-BP238/IL6R-L (antibody, human IgG1, kappa, name in EU numbering)
heavy: B1 heavy with G239D, H270D, Y298D, K332R
light: not shown
notes: EU numbering; copies: 2 + 2
- Kd [3]: 7 µM

B17: IL6R-BP200/IL6R-L (antibody, human IgG1, kappa, name in EU numbering)
heavy: B1 heavy with G239D, A328D, K332R
light: not shown
notes: EU numbering; copies: 2 + 2
- Kd [1]: 680 nM
- Kd [10]: 42 µM

B18: IL6R-BP210/IL6R-L (antibody, human IgG1, kappa, name in EU numbering)
heavy: B1 heavy with D235E, Y236L, G239D, H270D, A328K, K332R
light: not shown
notes: EU numbering; copies: 2 + 2
- Kd [4]: 55 nM
- Kd [10]: 95 µM

B20: VH3/L(WT)-mIgG1-mF44 (antibody)
heavy: QVQLQESGPGLVKPSETLSLTCAVSGHSISHDHAWSWVRQPPGEGLEWIGFISYSGITNYNPSLQGRVTISRDNSKNTLYLQMNSLRAEDTAVYYCARSLARTTAMDYWGEGTLVTVSSAKTTPPSVYPLAPGSAAQTNSMVTLGCLVKGYFPEPVTVTWNSGSLSSGVHTFPAVLQSDLYTLSSSVTVPSSTWPSETVTCNVAHPASSTKVDKKIVPRDCGCKPCICTVPEVSSVFIFPPKPKDVLTITLTPKVTCVVVDISKDDPEVQFSWFVDDVEVHTAQTQPREEQFNSTFRSVSELPIMHQDWLNGKEFKCRVNSADFPAPIEKTISKTKGRPKAPQVYTIPPPKEQMAKDKVSLTCMITDFFPEDITVEWQWNGQPAENYKNTQPIMDTDGSYFVYSKLNVQKSNWEAGNTFTCSVLHEGLHNHHTEKSLSHSPGK
light: not shown
notes: copies: 2 + 2
- binding result (mouse FcγRI): no binding
- binding result (mouse FcγRIV): no binding

Now from value to binder:

- Kd [2]: 2000 nM
B2: IL6R-BP456/IL6R-L (antibody, human IgG1, kappa, name in EU numbering)
heavy: B1 heavy with Y236L, G239D, S269A, H270E, A328K, K332R, P398M
light: not shown
notes: copies: 2 + 2

- Kd [3]: 9 µM
B3: IL6R-BP241/IL6R-L (antibody, human IgG1, kappa, name in EU numbering)
heavy: B1 heavy with Y236L, G239D, H270D, A328D, K332R
light: not shown
notes: EU numbering; copies: 2 + 2

- Kd [2]: 2000 nM
B4: IL6R-BP451/IL6R-L (antibody, human IgG1, kappa, name in EU numbering)
heavy: B1 heavy with Y236L, G239D, S269A, H270E, A328K, K332R, P398G
light: not shown
notes: copies: 2 + 2

- KD(IIaH)/KD(IIb) [5]: 658
- KD(IIaR)/KD(IIb) [6]: 18.5
- Kd [7]: 15 µM
- KD(IIaR) OF PARENT POLYPEPTIDE/KD(IIaR) OF ALTERED POLYPEPTIDE [8]: 2.4
- KD(IIb) OF PARENT POLYPEPTIDE/KD(IIb) OF ALTERED POLYPEPTIDE [9]: 127
B9: IL6R-BP504/IL6R-L (antibody, human IgG1, kappa, name in EU numbering)
heavy: B1 heavy with Y236L, G239D, V266I, S269A, H270E, E274P, A328K, K332A
light: not shown
notes: copies: 2 + 2

- Kd [2]: 2000 nM
B11: IL6R-BP447/IL6R-L (antibody, human IgG1, kappa, name in EU numbering)
heavy: B1 heavy with Y236L, G239D, S269A, H270E, A328K, K332R, P398A
light: not shown
notes: copies: 2 + 2

- KD(IIaH)/KD(IIb) [5]: 865
- KD(IIaR)/KD(IIb) [6]: 40.1
- Kd [7]: 1.5 µM
- KD(IIaR) OF PARENT POLYPEPTIDE/KD(IIaR) OF ALTERED POLYPEPTIDE [8]: 14.8
- KD(IIb) OF PARENT POLYPEPTIDE/KD(IIb) OF ALTERED POLYPEPTIDE [9]: 1680
B13: IL6R-BP488/IL6R-L (antibody, human IgG1, kappa, name in EU numbering)
heavy: B1 heavy with Y236L, G239D, V266I, S269A, H270E, Y298D, A328K, K332R
light: not shown
notes: copies: 2 + 2

- Kd [3]: 6 µM
B19: IL6R-BP243/IL6R-L (antibody, human IgG1, kappa, name in EU numbering)
heavy: B1 heavy with G239D, H270D, A328K, K332R
light: not shown
notes: EU numbering; copies: 2 + 2

- binding result (mouse FcγRI): no binding
- binding result (mouse FcγRIV): no binding
B21: VH3/L(WT)-mIgG1 (antibody)
heavy: B20 heavy with D323A
light: not shown
notes: mouse IgG1 constant region; copies: 2 + 2

- binding result (mouse FcγRI): no binding
- binding result (mouse FcγRIV): no binding
B22: VH3/L(WT)-mIgG1-mF46 (antibody)
heavy: B20 heavy with S235D
light: not shown
notes: copies: 2 + 2

Reference: US20240279325A1 (Chugai, published 2024)
